The values that follow are results of earlier work, collected in paper PMC5358871.

For the series, the target named is Bfd (Pseudomonas aeruginosa) (UniProt Q9HY80). Nature of the series: SPR, ITC. A general note: SPR reads the build-up and loss of mass on a sensor chip optically.
Chain of UniProt Q9HY80 (Q9HY80 whole entry): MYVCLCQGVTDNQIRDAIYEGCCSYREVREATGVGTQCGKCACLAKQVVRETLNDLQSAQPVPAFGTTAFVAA

In the case of BfrB (from UniProt Q9HY79), the dissociation constant Kd is 3000 nM.

Usually Kd stands for a measure of binding affinity in units of concentration.
